Consider 10 molecules from patent US20120071419A1 (POSTECH ACADEMY INDUSTRY FOUNDATION, published 2012).

For experiment [1], the target named is T1, EGFR (Epidermal Growth Factor Receptor) (human, UniProt P00533 26-444, limits assumed).
T1 construct: also called EGF receptor
Briefly: phage ELISA, wells coated with 4 ug/ml EGFR, anti-M13-HRP, OD 650 nm. Here is the method:
(§1) Individual colonies were randomly selected from the output titration plate of the last round, and inoculated in 1 ml of super broth (3% tryptone, 2% yeast extract, 1% 3-[N-Morpholino] propanesulfonic acid [MOPS], pH 7.0). after overnight incubation at 37° C., the supernatant was used for phage ELISA (enzyme-linked immunosorbant assay). microtitration plate wells were coated with 4 μg/ml EGFR-containing PBS at 4° C. for one night, and blocked with 3% BSA-containing PBS at 37° C. for 1 hour. The plate was cultured with the phage-containing supernatant at 37° C. for 2 hours, and washed with 0.05% Tween-20-containing PBS (PBST) three times. Thereafter, HRP (horseradish peroxidase)-conjugated anti-M13 antibody (Sigma) diluted in a blocking buffer solution (1:2000) was added thereto and cultured at 37° C. for 1 hour. 50 μl of TMB substrate solution (Pierce, Rockford, Ill.) was added to each well, and OD was measured at 650 nm.
(In general: ELISA stands for enzyme-linked immunosorbent assay.)

Experiment [2] deals with T1, EGFR (Epidermal Growth Factor Receptor). The experiment is described as follows: phage ELISA, wells coated with 4 ug/ml EGFR, anti-M13-HRP. The protocol:
as §1

B1: wild type 1OZJ scaffold (B chain of 1OZJ, crystal structure of Smad3-MH1) (other, human, UniProt P84022 1-144, looked up)
chain: MSSILPFTPPIVKRLLGWKKGEQNGQEEKWCEKAVKSLVKKLKKTGQLDELEKAITTQNVNTKCITIPRSLDGRLQVSHRKGLPHVIYCRLWRWPDLHSHHELRAMELCEFAFNMKKDEVCVNPYHYQRVETPVLPPVLVPRHT
notes: domain: Smad3-MH1; 6; also called WT
As for B1, in experiment [1], the binding result is “no binding”. Also, the “OD at 650 nm” value in experiment [2] was found to be 0.086 OD.

B2: clone 7 of the 1OZJ scaffold (designed binder)
chain: MSSILPFTPPIVKRLLGWKKGEQNGQEEKWCEKAVKSLVKKLKLTGQLDELEKAITTQNVNTKCITIPRSLDGRLQVSHRKGLPHVIYCRLWRWPDLHSHHELRAMALCAFAFMMKKCEVCVNPYHYQRVETPVLPPVLVPRHT
As for B2, the “OD at 650 nm” value in experiment [2] was 1.74 OD.

B3: clone 9 of the 1OZJ scaffold (designed binder)
chain: MSSILPFTPPIVKRLLGWKKGEQNGQEEKWCEKAVKSLVKKLKATGQLDELEKAITTQNVNTKCITIPRSLDGRLQVSHRKGLPHVIYCRLWRWPDLHSHHELRAMQLCIFAFLMKKPEVCVNPYHYQRVETPVLPPVLVPRHT
Consider B3, for which the “OD at 650 nm” value in experiment [2] came to 1.75 OD.

B4: clone 8 of the 1OZJ scaffold (designed binder)
chain: MSSILPFTPPIVKRLLGWKKGEQNGQEEKWCEKAVKSLVKKLKGTGQLDELEKAITTQNVNTKCITIPRSLDGRLQVSHRKGLPHVIYCRLWRWPDLHSHHELRAMPLCNFAFTMKKPEVCVNPYHYQRVETPVLPPVLVPRHT
notes: domain: Smad3-MH1
Take B4: the “OD at 650 nm” value in experiment [2] is 1.18 OD.

B5: clone 54 of the 1OZJ scaffold (designed binder)
chain: MSSILPFTPPIVKRLLGWKKGEQNGQEEKWCEKAVKSLVKKLKCTGQLDELEKAITTQNVNTKCITIPRSLDGRLQVSHRKGLPHVIYCRLWRWPDLHSHHELRAMILCDFAFPMKKREVCVNPYHYQRVETPVLPPVLVPRHT
notes: domain: Smad3-MH1
Consider B5, for which the “OD at 650 nm” value in experiment [2] came out at 1.16 OD.

B6: clone 55 of the 1OZJ scaffold (designed binder)
chain: MSSILPFTPPIVKRLLGWKKGEQNGQEEKWCEKAVKSLVKKLKITGQLDELEKAITTQNVNTKCITIPRSLDGRLQVSHRKGLPHVIYCRLWRWPDLHSHHELRAMKLCRFAFPMKKDEVCVNPYHYQRVETPVLPPVLVPRHT
notes: domain: Smad3-MH1
Consider B6, for which, in experiment [2], the “OD at 650 nm” value worked out at 0.964 OD.

B7: clone 31 of the 1OZJ scaffold (designed binder)
chain: MSSILPFTPPIVKRLLGWKKGEQNGQEEKWCEKAVKSLVKKLKGTGQLDELEKAITTQNVNTKCITIPRSLDGRLQVSHRKGLPHVIYCRLWRWPDLHSHHELRAMHLCPFAFKMKKWEVCVNPYHYQRVETPVLPPVLVPRHT
notes: domain: Smad3-MH1
B7: the “OD at 650 nm” value in experiment [2] stood at 0.959 OD.

B8: clone 6 of the 1OZJ scaffold (designed binder)
chain: MSSILPFTPPIVKRLLGWKKGEQNGQEEKWCEKAVKSLVKKLKSTGQLDELEKAITTQNVNTKCITIPRSLDGRLQVSHRKGLPHVIYCRLWRWPDLHSHHELRAMGLCSFAFNMKKLEVCVNPYHYQRVETPVLPPVLVPRHT
On to B8, for which the “OD at 650 nm” value in experiment [2] was 1.83 OD.

B9: clone 43 of the 1OZJ scaffold (designed binder)
chain: MSSILPFTPPIVKRLLGWKKGEQNGQEEKWCEKAVKSLVKKLKRTGQLDELEKAITTQNVNTKCITIPRSLDGRLQVSHRKGLPHVIYCRLWRWPDLHSHHELRAMHLCNFAFGMKKAEVCVNPYHYQRVETPVLPPVLVPRHT
notes: domain: Smad3-MH1
B9: the “OD at 650 nm” value in experiment [2] came out at 0.919 OD.

B10: clone 53 of the 1OZJ scaffold (designed binder)
chain: MSSILPFTPPIVKRLLGWKKGEQNGQEEKWCEKAVKSLVKKLKATGQLDELEKAITTQNVNTKCITIPRSLDGRLQVSHRKGLPHVIYCRLWRWPDLHSHHELRAMSLCSFAFSMKKIEVCVNPYHYQRVETPVLPPVLVPRHT
notes: domain: Smad3-MH1
B10: in experiment [2], the “OD at 650 nm” value was 1.02 OD.
